Conditions: Escherichia coli (strain K12); pH 7.8; 25 °C; GdnHCl; Chromatography; Tris-HCl 5 mM; KCl 200 mM; reversible: yes; whole UniProt chain shown

B1: Co-chaperonin GroES wild type, P0A6F9 (protein)
chain: MNIRPLHDRVIVKRKEVETKSAGGIVLTGSAAAKSTRGEVLAVGNGRILENGEVKPLDVKVGDIVIFNDGYGVKSEKIDNEEVLIMSESDILAIVEA
denaturant m value: 2.3 kcal/mol/M
unfolding free energy: 9.62 kJ/mol

Reference: FireProtDB (doi:10.1016/j.jmb.2004.09.082)
